This note sets out measurements from the supplement of paper PMC10567573.

± gives the standard deviation.

This data set can be described thus: protein stability index of a GFP-peptide fusion (GPS, HEK-293T) (PSI 1-6); higher = more stable.
Setting [1] is: treatment: DMSO, c terminus: a fixed tail appended.
Setting [2] is: treatment: MLN4924 1 uM, 8 h, c terminus: a fixed tail appended.
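Also: 24-mer peptide tiles fused after GFP, lentivirally expressed, FACS-sorted into six equal bins by GFP/DsRed ratio, decoded by Illumina sequencing, PSI is the read-weighted mean bin number.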

As to EMEEGVKESLCAKEEKCQGKGDDS [KCNA4], the protein stability index came to 5.62 ± 0.19 under setting [1] and 5.57 ± 0.33 under setting [2].

On to PLRPLLGFRESDSAKPASLRLLQH [C6orf223], for which the protein stability index runs as follows: under setting [1], 3.41 ± 0.39; under setting [2], 3.6 ± 0.27.

Consider KDAALATALGDKKSLEGDLEDLKD [LMNB1], for which the protein stability index is 5.42 ± 0.36 under setting [1] and 5.89 ± 0.14 under setting [2].

In the case of EDDSMSVIEPVVENSGILQGKLIK [EFHC1], the protein stability index under setting [1] was 4.89 ± 0.45 and the protein stability index under setting [2] came out at 5.45 ± 0.25.

Regarding SSAVYFAEADEPTTHFQSIPDAFW [KCNA4], the protein stability index came out at 2.54 ± 0.16 under setting [1] and 2.67 ± 0.33 under setting [2].

LLASSDAALSASMASLLEDLSHIE [SERTAD1]: the protein stability index is, setting by setting: under setting [1], 3.06 ± 0.37; under setting [2], 3.27 ± 0.33.

Turning to FEQLPDDVAISANIADIEEKRGFT [NCF4], the protein stability index reads like this: under setting [1], 5.03 ± 0.33; under setting [2], 5.05 ± 0.21.

Take ATDYLRYKPVVLLQGLSLIVTWFM [SLC19A2]: the protein stability index by setting is: under setting [1], 2.35 ± 0.12; under setting [2], 2.42 ± 0.19.

For the sequence YQLLATHVPTVWAIDQYRVCQEVL [RHOBTB1], the protein stability index under setting [1] turned out to be 2.61 ± 0.59 and the protein stability index under setting [2] turned out to be 2.38 ± 0.47.

Consider QEVTKLQQQVKTNGAGVTVLRREI [FBXO28], for which the protein stability index reads like this: under setting [1], 3.97 ± 0.25; under setting [2], 4.03 ± 0.45.

On to TLALILQIPTQNTQARQVMEREFN [PPFIA4], for which the protein stability index is, setting by setting: under setting [1], 2.32 ± 0.34; under setting [2], 2.39 ± 0.26.

As for ILREELQKQRLREILEQQQQERND [ZNF277], the protein stability index runs as follows: under setting [1], 4.4 ± 0.51; under setting [2], 4.32 ± 0.33.

ESLSAIEAELEKVAHQLQALRRG [CHGA]: the protein stability index came to 3.19 ± 0.42 (treatment: DMSO, c terminus: native) and 3 ± 0.72 (treatment: MLN4924 1 uM, 8 h, c terminus: native).

Turning to SPVAHKHLSRQKIDPLLYMTEWFM [TBC1D10A], the protein stability index reads like this: under setting [1], 2.19 ± 0.18; under setting [2], 2.23 ± 0.16.

Consider YGPLKPLPQTPHLEEDLKEVLRSE [MYBL2], for which the protein stability index by setting is: under setting [1], 5 ± 0.19; under setting [2], 4.95 ± 0.24.

Take SLGRHKRTHTGEKPYTCSVCGKSF [ZNF8]: the protein stability index runs as follows: under setting [1], 3.2 ± 0.58; under setting [2], 3.69 ± 0.6.

With QRTHTGEKPYGCIDCGKAFSQKSC [ZNF649], the protein stability index came to 3.47 ± 0.27 under setting [1] and 3.87 ± 0.23 under setting [2].

In the case of QGEICLCTSRIFVQKSIYSEFLKR [ALDH8A1], the protein stability index under setting [1] is 2.29 ± 0.64 and the protein stability index under setting [2] is 2.06 ± 0.49.

In the case of PDKESMYYPRVQHYRELLDSLPMD [GDAP1], the protein stability index stood at 3.38 ± 0.23 under setting [1] and 3.48 ± 0.35 under setting [2].

With AEDGGAYLATAKVLITVEDVNDNS [PCDHGA10], the protein stability index under setting [1] worked out at 4.4 ± 0.21 and the protein stability index under setting [2] was 4.36 ± 0.29.

As to HRWPSNMYLKQLAEYRKYIHSRKC [RHOBTB3], the protein stability index reads like this: under setting [1], 2.75 ± 0.37; under setting [2], 3.19 ± 0.27.

With AAPEGKRSLANGPNAGEQPGQVAG [EID1], the protein stability index is 5.44 ± 0.38 under setting [1] and 5.22 ± 0.16 under setting [2].

Consider AFSQAISAIQALRSSVSRVFDCLK [MED27], for which the protein stability index under setting [1] is 3.69 ± 0.36 and the protein stability index under setting [2] was 3.41 ± 0.15.

Turning to LSLGALVALCWQLGLLFERHWHRP [SCNN1D], the protein stability index by setting is: under setting [1], 3.09 ± 0.24; under setting [2], 3.16 ± 0.19.

Regarding LNEKRTFFHLSALKGYLYAVGGRN [KLHL13], the protein stability index reads like this: under setting [1], 2.49 ± 0.68; under setting [2], 2.33 ± 0.46.

Regarding GFSLEDPQTHSNRIYRMIKLGLGI [HSP90AB1], the protein stability index under setting [1] turned out to be 2.06 ± 0.42 and the protein stability index under setting [2] is 2.29 ± 0.3.

Regarding VRDQISHCTVKLRQTTGLMEYCLE [TRIM9], the protein stability index runs as follows: under setting [1], 2.59 ± 0.31; under setting [2], 2.65 ± 0.36.

For the sequence LRNNFQKQLLSNKELILDKVYTHP [ZC2HC1C], the protein stability index under setting [1] is 2.76 ± 0.23 and the protein stability index under setting [2] turned out to be 3.08 ± 0.25.

Regarding HTEERPFKCNYCGKSFRQRPSLVI [ZNF449], the protein stability index is, setting by setting: under setting [1], 2.37 ± 0.15; under setting [2], 2.44 ± 0.28.
